# In US20250042946A1, “Biological Production of Histidine-Rich Peptides” (Oakgrove Bio LLC, priority 2021, published 2025):
# B1: IIP003: insoluble immunogenic peptide, 6 × SAP162 with 3 × Ova1, Structure 9, SEQ ID NO: 104 (protein)
# chain: MASGGDPGGHQEYHYHYRQHGGGGSIINFEKLGGGGHQEYHYHYRQHGGDPGGHQEYHYHYRQHGGGGSIINFEKLGGGGHQEYHYHYRQHGGDPGGHQEYHYHYRQHGGGGSIINFEKLGGGGHQEYHYHYRQHGGDPGGPGPGP
# B2: IFP-Api-003: split fusion, Apidaecin sandwiched between two copies of IFP100, cLNK GGDPGG, SEQ ID NO: 98 (protein)
# chain: MASGGGQQHYHYHQQGGGGQQHYHYHQQGGDPGGGNNRPVYIPQPRPPHPPRGGDPGGQQHYHYHQQGGGGQQHYHYHQQGGGPGPGPHHHHHH
# B3: IIP015: insoluble immunogenic peptide, 6 × SAP234 with 3 × Ova1, Structure 9, SEQ ID NO: 114 (protein)
# chain: MASGGDPGGQQHYHYHQQGGGGSIINFEKLGGGGQQHYHYHQQGGDPGGQQHYHYHQQGGGGSIINFEKLGGGGQQHYHYHQQGGDPGGQQHYHYHQQGGGGSIINFEKLGGGGQQHYHYHQQGGDPGGPGPGP
# B4: IFP-Api-006: split fusion, two copies of Apidaecin sandwiched between three copies of IFP100, SEQ ID NO: 100 (protein)
# chain: MASGGGQQHYHYHQQGGGGQQHYHYHQQGGDPGGGNNRPVYIPQPRPPHPPRGGDPGGQQHYHYHQQGGGGQQHYHYHQQGGDPGGGNNRPVYIPQPRPPHPPRGGDPGGQQHYHYHQQGGGGQQHYHYHQQGGGPGPGPHHHHH
# B5: IFP-Luna-006: split fusion, two copies of Lunasin sandwiched between three copies of IFP100, SEQ ID NO: 102 (protein)
# chain: MASGGGQQHYHYHQQGGGGQQHYHYHQQGGDPGGSKWQHQQDSCRKQLQGVNLTPCEKHIMEKIQGRGDDDDDDDDDPGGGGQQHYHYHQQGGGGQQHYHYHQQGGDPGGSKWQHQQDSCRKQLQGVNLTPCEKHIMEKIQGRGDDDDDDDDDPGGGGQQHYHYHQQGGGGQQHYHYHQQGGGPGPGPHHHHHH
# B6: IFP221: insolubility fusion partner of IFP221-Api; 3 × QQEYHYHYHYRQQ with GGGG spacers as in SEQ ID NO: 94 (protein)
# chain: MASGGGQQEYHYHYHYRQQGGGGQQEYHYHYHYRQQGGGGQQEYHYHYHYRQQGGGDPGGGNNRPVYIPQPRPPHPRLGGGGDPGGGNNRPVYIPQPRPPHPRLGGGGDPGPGPHHHHHH
# Assay: Soluble versus insoluble fraction of E. coli cell extracts, SDS-PAGE
# Type: physicochemical
# Settings: cell extract in 25 mM Tris 50 mM NaCl pH 7.5, centrifugation 20,000×g
# Protocol: To determine the soluble versus insoluble cell contents, cells from each of the 3 mL cultures were harvested by centrifugation and the pellet resuspended in 1 ml of 25 mM Tris 50 mM NaCl PH 7.5 buffer. The cell suspensions were transferred in 2 mL screw cap tubes containing 0.5 mL of ZrO2/SiO4 0.1 mm beads (Research Product International, Mount Prospect, IL) and disrupted in a FastPrep-24™ bead beater (MP Bio Irvine, CA) for 1 min at 5 m/s. After disruption, the cell extracts were transferred to new microfuge tubes. The soluble and insoluble fractions were then separated by centrifugation at 20,000×g for 5 min. The supernatants containing the soluble proteins were transferred to new tubes and the pellets containing the inclusion bodies were resuspended in the same volume of Tris-NaCl buffer.
# Ten μL aliquots of the soluble fraction and of the particulate fraction are analyzed by SDS-PAGE using precast NuPAGE™ Bis-Tris 12% polyacrylamide gels (Thermo Scientific) as indicated by the manufacturer. After electrophoresis, the proteins and peptides were visualized by staining with GelCode™ Blue Safe Protein Coomassie Stain (Thermo Scientific).
row,Molecule,solubility of the polypeptide as expressed in E. coli
1,B1,produced insolubly
2,B2,expressed the split fusion insolubly
3,B3,produced insolubly
4,B4,expressed the split fusion insolubly
5,B5,expressed the split fusion insolubly

# Assay: not given
# Type: physicochemical
# Settings: pH 2
# Protocol: To evaluate the useful solubilization of the IFPs at acidic and alkaline pH (from pH 2 to pH 12), the insoluble fractions of cell extracts expressing selected IFPs were produced as described in Example 2. They were pelleted by centrifugation for 5 min at 20,000×g and washed with water several times to remove the buffer. The washed pellets were resuspended in 10 mM HCl pH 2 or in 10 mM NaOH pH 12. Suspensions were mixed vigorously and allowed to stand at room temperature for 15 min at which time they were centrifuged again for 5 min at 20,000×g. The solubilization of the IFPs in either acidic (pH 2) or alkaline (pH 12) conditions was assessed by PAGE analysis of an aliquot of the centrifugation supernatant.
# Cells were harvested by centrifugation at 20,000×g, resuspended in 1 mL of 25 mM Tris […] pH 7.5 and disrupted with a bead beater as described in Example 2. Following cell disruption and centrifugation, the insoluble fractions were washed several times in deionized water to remove traces of buffer and then recovered by centrifugation. The fractions were resuspended in 1 mL of 10 mM HCl pH 2 with repeated vortexing over 15 min at room temperature. […] Aliquots of each fraction corresponding to a same initial volume of cell extracts were analyzed by SDS-PAGE.
row,Molecule,solubilization at acidic pH
1,B1,solubilization
2,B3,solubilization

# Assay: not given
# Type: physicochemical
# Settings: not given
# Protocol: After 15 min at pH 2, the acidified supernatant fraction were neutralized by addition of 40 μL 500 mM Tris base or 60 μL of Bis-Tris base per mL of pH 2 fraction to reach a pH comprised between 6.5 and 8.0. For most fusions, the neutralization was accompanied by the immediate formation of a precipitate. When only a light precipitate was observed, the buffer was adjusted to neutrality by addition of HCl or of buffer base. The neutralized fractions were placed at −20° C. for 20 min and were subsequently thawed. The neutralized fractions were then centrifuged at 20,000×g for 5 min. Their supernatant was discarded and the pellets containing the insoluble fusion peptides resuspended in 1 ml of water.
row,Molecule,re-insolubilization (precipitation) upon neutralization
1,B1,re-insolubilization
2,B3,re-insolubilization

# Assay: not given
# Type: physicochemical
# Settings: not given
# Remark: another data set of the same source
# Protocol: After the acid-based purification step at acidic pH described in Example 5, the neutralized insoluble fusion peptides were washed again with water to remove traces of buffer and were resuspended in 1 mL of 10 mM HCl pH 2. The precipitates resolubilized immediately thus highlighting the rapid, reversible and pH-controllable properties of the peptide fusions to IFPs The tubes containing the solubilized fusion peptides were incubated at 80° C. for 4 hours to allow the cleavage of the Asp-Pro acid-labile peptide bond in the linker connecting the IFP and the POI. After four hours at 80° C., the solutions were neutralized back to a pH comprised between 6.5 and 8.0 by addition of 60 μL of 500 mM Tris Base Tris per mL of pH 2 peptide solution. For most fusions, the neutralization was accompanied by the immediate formation of precipitates. When only a light precipitate was observed, the buffer was adjusted to neutrality by careful addition of HCl or of buffer base. The neutralized fractions were placed at −20° C. for 20 min to enhance precipitation, and then subsequently thawed and centrifuged at 20,000×g for 5 min. The supernatants were transferred to a new tube and the pellets resuspended in 1 ml of water. Aliquots of soluble and insoluble fractions were analyzed by PAGE.
row,Molecule,solubility at neutral pH after acid cleavage (partition supernatant / pellet)
1,Apidaecin,recovered in the soluble fraction
2,Lunasin,recovered in the soluble fraction
3,"IFP534: insolubility fusion partner, 4 × QQHYHYHQQ, GGGG linker, SEQ ID NO: 62",remains in the insoluble fraction
4,B6,remains in the insoluble fraction
